Experiment [1] has as its target T1, mouse ICOS expressed on the surface of CHO-S cells (mouse, UniProt Q9WVS0 21-200).
T1 construct: whole, on cells; also called mICOS; Mouse ICOS CHO
T1 sequence (looked up): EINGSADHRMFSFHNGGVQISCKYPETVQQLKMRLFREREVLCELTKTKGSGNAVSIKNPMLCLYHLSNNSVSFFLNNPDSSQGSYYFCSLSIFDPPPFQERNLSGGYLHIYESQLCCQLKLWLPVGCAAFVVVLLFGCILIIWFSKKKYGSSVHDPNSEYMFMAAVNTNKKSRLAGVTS
Put plainly: flow cytometry on CHO-S cells, purified IgG1.

The target of experiment [2] is T2, human ICOS expressed on the surface of cells (human, UniProt Q9Y6W8 21-199).
T2 construct: also called hICOS; Human ICOS CHO
T2 sequence: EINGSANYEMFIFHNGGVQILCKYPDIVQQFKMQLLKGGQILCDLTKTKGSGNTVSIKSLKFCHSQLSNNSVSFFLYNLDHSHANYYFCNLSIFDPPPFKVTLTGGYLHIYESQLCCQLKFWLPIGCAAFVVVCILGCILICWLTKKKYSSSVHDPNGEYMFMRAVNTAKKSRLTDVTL
Description: flow cytometry on CHO-S cells, purified IgG1. In general terms: In flow cytometry, cells or beads pass a laser one at a time.

B1: CL-74570 (antibody, V domains shown)
VH: EVQLVESGGGVIRPGGSLRLSCAASGFTFDDYGMSWVRQAPGKGLEWVSGINWIGDNTDYADSVKGRFTISRDNAKNSLYLQMNSLRAEDTALYYCARDYFGSGSYYNVPF
VL: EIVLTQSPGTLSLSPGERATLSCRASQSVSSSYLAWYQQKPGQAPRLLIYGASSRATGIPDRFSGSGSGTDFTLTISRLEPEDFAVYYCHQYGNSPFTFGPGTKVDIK
With B1, the “fold above the average of geomean of the negative control” value in experiment [1] and in experiment [2] was more than 10 fold in each case.

B2: CL-61091 (antibody, V domains shown)
VH: QVQLMQSGTEVKKPGASVKVSCKTSGYTFTTYGITWVRQAPGQGLEWMGWISAYSGDTDYAQKFQGRVTVTTDTSTNTAYMELRSLKSDDTAVYYCARSSGWPHHYGMDVWGQGTTVTVSS
VL: DIVMTQSPLSLPVTPGEPASISCRSSQSLLHSNGFNYFDWYLQKPGQSPQLLIFLVSNRASGVPDRFSGSGSGTDFTLKISRVEAEDVGIYYCMQALQTPLTFGGGTKVEIK
B2: the “fold above the average of geomean of the negative control” value in experiment [1] and in experiment [2] was more than 10 fold in each case.

The values above are taken from patent US20250340641A1 (KYMAB, published 2025).
